The values below come from paper PMC12667410 (Cell chemical biology, 2024).

The target in one test is T1, SIRT5 (Homo sapiens, UniProt Q9NXA8).
T1 sequence (Q9NXA8 37-310): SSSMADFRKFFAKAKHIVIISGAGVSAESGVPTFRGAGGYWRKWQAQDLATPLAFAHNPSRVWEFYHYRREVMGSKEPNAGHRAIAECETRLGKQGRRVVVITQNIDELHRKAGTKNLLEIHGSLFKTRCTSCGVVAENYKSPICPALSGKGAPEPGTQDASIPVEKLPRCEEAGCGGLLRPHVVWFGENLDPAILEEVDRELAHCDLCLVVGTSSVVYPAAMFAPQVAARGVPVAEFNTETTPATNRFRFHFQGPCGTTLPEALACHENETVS
Description: SIRTify cell-free assay, SIRT5. The format is biochemical. As to conditions: ratio of IC50 values.

Test [1] deals with LgBiT Protein (LgBiT subunit of the NanoBiT luciferase; large, truncated fragment of NanoLuc) (Oplophorus gracilirostris). Description: split reporter.

Take `O=C(O)CCNC(=S)NCCCC[C@H](NS(=O)(=O)c1cccc(F)c1)C(=O)N[C@@H](Cc1c[nH]c2ccccc12)C(=O)NC1CCC1` [SIRT5 Inhibitor I (S5I1)]: at SIRT5, the “lower IC50 for SIRT5 deglutarylase compared to desuccinylase activity” value was “approximately 3 fold”.
Take “p86-Acetyl8,9: H2N-VSGWRLF(KAc)(KAc)IS-OH (peptide)”: in test [1], the fold decrease in luminescent signal against unmodified p86 was found to be 5.8 fold and the fold reduced affinity compared to p86 stood at 175 fold.
In test [1], “p86-Acetyl8: H2N-VSGWRLF(KAc)KIS-OH (peptide)” had a fold decrease in luminescent signal against unmodified p86 of 1.1 fold.
For the molecule “p86-Acetyl9: H2N-VSGWRLFK(KAc)IS-OH (peptide)”, the fold decrease in luminescent signal against unmodified p86 in test [1] came to 1.1 fold.
On the same count and under the same terms, as for “p86-Succinyl8,9: H2N-VSGWRLF(KSuc)(KSuc)IS-OH (peptide)”, the figure is 7.5 fold; as for “p86-Succinyl8: H2N-VSGWRLF(KSuc)KIS-OH (peptide)”, 1.7 fold.
In turn, “p86-Succinyl9: H2N-VSGWRLFK(KSuc)IS-OH (peptide)” returned a fold decrease in luminescent signal against unmodified p86 in test [1] of 1.7 fold.
